Measurements from patent US20240209081A1 (GENOME, published 2024).

Legend:
[1] = biological target: T1, human CNTN4-10×His (human, UniProt Q8IWV2 19-1000); test: ELISA, plate coated with 20 nM antigen, HRP anti-human kappa detection
T1 construct: also called CNTN-4 protein
T1 sequence: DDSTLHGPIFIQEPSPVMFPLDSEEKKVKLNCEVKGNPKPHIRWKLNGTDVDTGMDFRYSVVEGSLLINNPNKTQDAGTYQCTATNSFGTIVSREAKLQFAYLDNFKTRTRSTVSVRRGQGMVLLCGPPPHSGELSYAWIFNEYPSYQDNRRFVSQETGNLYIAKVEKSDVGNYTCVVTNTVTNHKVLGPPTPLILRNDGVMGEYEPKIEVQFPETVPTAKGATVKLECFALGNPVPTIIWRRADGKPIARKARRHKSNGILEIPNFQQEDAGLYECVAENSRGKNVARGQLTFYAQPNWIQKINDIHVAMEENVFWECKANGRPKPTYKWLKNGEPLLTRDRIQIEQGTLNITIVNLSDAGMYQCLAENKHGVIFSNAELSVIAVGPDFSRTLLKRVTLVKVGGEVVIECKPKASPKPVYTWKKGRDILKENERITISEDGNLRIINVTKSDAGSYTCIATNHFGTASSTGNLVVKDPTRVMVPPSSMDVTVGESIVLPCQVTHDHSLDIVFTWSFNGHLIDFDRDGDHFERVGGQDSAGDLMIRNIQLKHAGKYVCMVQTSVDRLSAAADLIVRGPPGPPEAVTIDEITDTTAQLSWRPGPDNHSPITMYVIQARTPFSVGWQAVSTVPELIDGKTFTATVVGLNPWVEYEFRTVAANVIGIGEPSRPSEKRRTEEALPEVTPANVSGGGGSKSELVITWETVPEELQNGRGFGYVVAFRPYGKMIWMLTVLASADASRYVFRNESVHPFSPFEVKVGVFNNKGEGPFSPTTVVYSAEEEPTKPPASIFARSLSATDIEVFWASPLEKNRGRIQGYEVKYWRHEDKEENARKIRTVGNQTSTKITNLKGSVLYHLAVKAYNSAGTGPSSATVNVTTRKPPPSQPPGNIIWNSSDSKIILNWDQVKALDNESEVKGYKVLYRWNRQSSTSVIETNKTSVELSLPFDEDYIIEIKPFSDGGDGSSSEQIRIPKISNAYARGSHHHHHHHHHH
Procedure: (§1) ELISA test was performed on the monoclonal antibody hAb-1 prepared in Example 2. An ELISA plate was coated with 20 nM of antigens (human CNTN4-10×His or mouse CNTN4-10×His). For antibody binding, antibodies hAb-1 were serially diluted from a maximum of 1 μM to 0.0001 nM, thereby binding to the antigen. HRP conjugated anti-human kappa antibodies were used as a secondary antibody for antibody detection. Color was developed using ABTS, which is a color developing reagent, and the absorbance at 405 nm was measured.

[2] = biological target: T2, mouse CNTN4-10×His (mouse, UniProt Q69Z26 19-1000); test: as above
T2 sequence: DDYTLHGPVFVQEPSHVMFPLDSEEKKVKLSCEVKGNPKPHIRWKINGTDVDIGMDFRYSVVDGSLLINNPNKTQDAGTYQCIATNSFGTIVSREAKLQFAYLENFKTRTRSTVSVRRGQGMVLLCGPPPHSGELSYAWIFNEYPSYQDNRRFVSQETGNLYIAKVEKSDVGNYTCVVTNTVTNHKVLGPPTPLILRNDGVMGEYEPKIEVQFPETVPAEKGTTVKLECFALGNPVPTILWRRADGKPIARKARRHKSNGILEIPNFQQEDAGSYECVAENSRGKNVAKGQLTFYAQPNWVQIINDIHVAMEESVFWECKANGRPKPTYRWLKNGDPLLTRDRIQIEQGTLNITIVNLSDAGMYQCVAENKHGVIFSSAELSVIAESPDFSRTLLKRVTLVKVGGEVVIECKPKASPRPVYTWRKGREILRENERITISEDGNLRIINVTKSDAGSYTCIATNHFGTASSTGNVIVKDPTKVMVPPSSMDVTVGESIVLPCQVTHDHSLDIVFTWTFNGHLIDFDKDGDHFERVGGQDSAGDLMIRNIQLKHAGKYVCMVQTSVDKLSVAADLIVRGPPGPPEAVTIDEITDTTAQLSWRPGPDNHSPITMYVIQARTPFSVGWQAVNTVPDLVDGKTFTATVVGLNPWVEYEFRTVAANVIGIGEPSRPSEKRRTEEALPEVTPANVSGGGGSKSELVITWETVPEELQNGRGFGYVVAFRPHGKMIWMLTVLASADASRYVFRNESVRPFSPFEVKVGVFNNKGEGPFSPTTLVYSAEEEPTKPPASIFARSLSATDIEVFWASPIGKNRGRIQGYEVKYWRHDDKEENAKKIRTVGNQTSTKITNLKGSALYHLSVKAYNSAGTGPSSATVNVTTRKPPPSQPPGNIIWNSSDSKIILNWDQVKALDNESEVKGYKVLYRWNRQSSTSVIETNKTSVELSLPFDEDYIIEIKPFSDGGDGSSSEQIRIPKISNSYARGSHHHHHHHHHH
Procedure: as §1

[3] = biological target: T1, human CNTN4-10×His; test: ELISA on coated human CNTN4-10×His, competitor 500 nM CNTN4 receptor (APP) co-incubated
Procedure: (§2) An ELISA plate was coated with 20 nM of antigens human CNTN4-10×His. For antibody binding, a mixture of antibodies hAb-1 diluted to a final concentration of 0 to 1,000 nM and human CNTN4 receptors (Amyloid precursor protein, APP) diluted to 0 or 500 nM was bound to the antigens. HRP conjugated anti-human kappa antibodies were used as a secondary antibody for antibody detection. Color was developed using ABTS, which is a color developing reagent, and the absorbance at 405 nm was measured.

[4] = biological target: T3, human CNTN4 recombinant protein (human, UniProt Q8IWV2 19-1000); test: SPR (CM5 chip), hAb-1 captured by anti-human IgG Fc, human CNTN4 400 nM to 0.78 nM as analyte
T3 construct: No tag is stated, so it is kept apart from human CNTN4-10×His, though it may be the same preparation; also called Human CNTN-4 protein
T3 sequence (looked up): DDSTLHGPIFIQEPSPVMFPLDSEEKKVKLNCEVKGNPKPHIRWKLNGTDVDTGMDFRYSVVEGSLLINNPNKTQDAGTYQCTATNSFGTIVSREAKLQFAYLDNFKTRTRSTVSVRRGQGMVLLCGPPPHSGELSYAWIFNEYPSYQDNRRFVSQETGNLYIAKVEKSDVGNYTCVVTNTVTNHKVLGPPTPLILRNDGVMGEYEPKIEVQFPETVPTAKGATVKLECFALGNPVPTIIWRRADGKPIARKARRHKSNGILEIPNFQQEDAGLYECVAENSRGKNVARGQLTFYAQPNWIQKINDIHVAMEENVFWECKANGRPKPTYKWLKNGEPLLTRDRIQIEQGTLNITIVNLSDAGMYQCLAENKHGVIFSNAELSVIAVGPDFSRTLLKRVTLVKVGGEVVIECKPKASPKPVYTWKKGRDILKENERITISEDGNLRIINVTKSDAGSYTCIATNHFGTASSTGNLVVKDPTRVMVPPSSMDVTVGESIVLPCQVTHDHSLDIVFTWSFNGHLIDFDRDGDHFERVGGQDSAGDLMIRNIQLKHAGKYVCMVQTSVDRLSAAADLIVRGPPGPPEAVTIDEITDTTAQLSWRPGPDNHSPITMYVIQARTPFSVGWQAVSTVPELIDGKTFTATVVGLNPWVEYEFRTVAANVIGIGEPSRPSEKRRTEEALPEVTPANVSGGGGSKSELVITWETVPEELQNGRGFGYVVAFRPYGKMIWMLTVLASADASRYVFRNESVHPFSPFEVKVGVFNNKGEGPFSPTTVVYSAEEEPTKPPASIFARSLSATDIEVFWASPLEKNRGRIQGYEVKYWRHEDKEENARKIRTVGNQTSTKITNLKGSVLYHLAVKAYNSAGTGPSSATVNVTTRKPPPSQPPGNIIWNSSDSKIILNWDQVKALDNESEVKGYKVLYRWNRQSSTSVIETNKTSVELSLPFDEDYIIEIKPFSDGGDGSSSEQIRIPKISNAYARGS
Procedure: SPR test was performed on the monoclonal antibody hAb-1 prepared in Example 2. More specifically, in order to bind anti-human IgG Fc (capture antibody) using amine coupling, CM5 chip was mounted, running buffer was allowed to flow, the chip was activated, and then capture antibody was attached thereto. […] to which capture antibody was not attached was deactivated using ethanolamine, and then regeneration was performed using 3M magnesium chloride to clear analytes except capture antibody. The hAb-1 prepared at a concentration of 0.05 μg/mL was allowed to flow for 30 seconds at a rate of 10 μL/min for binding. Thereafter, human CNTN4 (400 nM to 0.78 nM) prepared by sequential dilution as an antigen was allowed to flow at a rate of 30 μL/min for 3 minutes to be bound, and dissociation was performed for 5 minutes.
Then, in order to clear all analytes attached to the capture antibody, a regeneration solution (3M magnesium chloride) was allowed to flow at a rate of […] for 30 seconds, and regeneration was performed. For each concentration of antigen, binding of hAb-1, binding of antigen, dissociation, and regeneration were repeated in order.

[5] = biological target: T1, human CNTN4-10×His; test: ELISA on coated human CNTN4-10×His, co-incubated with 0 nM CNTN4 receptor (APP); 0 nM CNTN-4 receptor (co-incubation)
Procedure: as §2

B1: anti-CNTN4 IgG4-S228P monoclonal antibody hAb-1 (antibody, V domains shown)
VH: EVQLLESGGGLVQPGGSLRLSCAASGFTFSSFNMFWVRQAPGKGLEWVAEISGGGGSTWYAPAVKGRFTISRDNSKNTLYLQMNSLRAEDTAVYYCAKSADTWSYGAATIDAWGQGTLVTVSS
VL: ELTQDPAVSVALGQTVRITCSGSSGSYGWYQQKPGQAPVLVIYDNTNRPSGIPDRFSGSSSGNTASLTITGAQAEDEADYYCGGYDGSTDVFGGGTKLTVL
EC50 [1]: 0.17 nM
EC50 [2]: 0.12 nM
EC50 [3]: 0.24 nM
Kd [4]: 35.6 nM
EC50 [5]: 0.17 nM
